Read-outs that look alike come from different tables or passages of the source.
How the values were obtained:
[1] = target: PahZ2_(KT-1), poly(aspartic acid) hydrolase-2 of Sphingomonas sp. KT-1 (Sphingomonas sp. KT-1); test: SEC
[2] = target: PahZ2_(KT-1), poly(aspartic acid) hydrolase-2 of Sphingomonas sp. KT-1 (Sphingomonas sp. KT-1); test: SEC; remark: listed apart in the source

**Q.** Which stoichiometry N [1] does the source give for “PahZ2_(KT-1), poly(aspartic acid) hydrolase-2 of Sphingomonas sp. KT-1 (enzyme)” here?
**A.** Its stoichiometry N is 1.94.

**Q.** And the stoichiometry N [2]?
**A.** The stoichiometry N was 2.4.

Source: publication PMC8657308
